Measurements: article PMC12700808

Key:
[1] = molecular target: Nup98-type FG domain comprising 52 perfect 12-mer GLFG repeat units (prf.GLFG52x12); experiment: FG phase partitioning assay
[2] = molecular target: Nup98-type FG domain comprising 52 perfect 12-mer GLFG repeat units (prf.GLFG52x12); experiment: partitioning into an FG phase (confocal laser scanning microscopy); prf.GLFG52x12 domain phase-separated into FG particles; fluorescent species added, scanned 1 h later; 50 mM Tris-HCl pH 7.5, 150 or 250 mM NaCl, 0.5 mM IP6; signal in:out, or rim and centre normalised to wild type
[3] = molecular target: Nup98-type FG domain comprising 52 perfect 12-mer GLFG repeat units (prf.GLFG52x12); experiment: FG phase partitioning assay; remark: listed apart in the source
[4] = molecular target: Nup98-type FG domain comprising 52 perfect 12-mer GLFG repeat units (prf.GLFG52x12); experiment: FG phase partitioning assay; remark: listed apart in the source
[5] = molecular target: Nup98-type FG domain comprising 52 perfect 12-mer GLFG repeat units (prf.GLFG52x12); experiment: FG phase partitioning assay; remark: listed apart in the source
[6] = molecular target: FG repeat domain of 669 residues with non-charged spacers and 36 FSFG motifs; experiment: FG phase partitioning assay
[7] = molecular target: Nup98-type FG domain comprising 52 perfect 12-mer GLFG repeat units (prf.GLFG52x12); experiment: FG phase partitioning assay; remark: listed apart in the source
[8] = fluorescence intensity at rim of FG particles
[9] = fluorescence intensity in center of FG particles
[10] = signal in center of FG particles

Row | Substance | response [4, 8] | response [4, 9] | percent of parent ([4]; signal at rim of FG particles) | percent of parent [4, 10] | further results
1 | conical CLPs (capsid-like particles) of wild-type CA (CA-P1A), filled with sinGFP4a R143A |  |  |  |  | response [1, 8]: 28000; response [1, 9]: 30000
2 | conical CLPs (capsid-like particles) of wild-type CA (CA-P1A), EGFP-labelled (complex) |  |  |  |  | partition coefficient (in:out) [2]: 1000
3 | conical CLPs (capsid-like particles) of wild-type CA (CA-P1A), filled with sinGFP4a G89V |  |  |  |  | percent of parent [3, 10]: 110%; response [1, 8]: 29000; response [1, 9]: 30000
4 | CLPs of CA G94D, filled with sinGFP4a (complex) |  |  |  |  | partitioning, percent of the wild-type level (% of the wild-type level) [2]: 5
5 | 20-nm T1 pentamer-only capsid spheres (CA P1A+G60A+G61P), EGFP-labelled N57A | 8500 | 400 | 45% | 2.1% | 
6 | conical CLPs (capsid-like particles) of wild-type CA (CA-P1A), filled with sinGFP4a H87Q; A92E; G94D | 8200 | 670 |  |  | percent of parent [5, 10]: 2.6%
7 | conical CLPs (capsid-like particles) of wild-type CA (CA-P1A), filled with sinGFP4a Q9E; A92E | 9700 | 660 |  |  | percent of parent ([5]; signal at rim of FG particles): 36%; percent of parent [5, 10]: 2.5%
8 | conical CLPs (capsid-like particles) of wild-type CA (CA-P1A), filled with sinGFP4a P90A |  |  |  |  | percent of parent ([3]; signal at rim of FG particles): 110%; response [1, 8]: 29000; response [1, 9]: 32000
9 | conical CLPs (capsid-like particles) of wild-type CA (CA-P1A), filled with sinGFP4a N57A; H87Q; A92E; G94D | 370 | 440 | 1.4% | 1.7% | 
10 | conical CLPs (capsid-like particles) of wild-type CA (CA-P1A), filled with sinGFP4a V86G | 27000 | 31000 | 90% | 90% | 
11 | CLPs of CA V86E, filled with sinGFP4a (complex) |  |  |  |  | fold reduction of partitioning against wild type [2]: > 10 fold
12 | conical CLPs (capsid-like particles) of wild-type CA (CA-P1A), filled with sinGFP4a K182R |  |  |  |  | percent of parent [3, 10]: 110%; response [1, 8]: 28000; response [1, 9]: 34000
13 | conical CLPs (capsid-like particles) of wild-type CA (CA-P1A), filled with sinGFP4a A92G | 26000 | 32000 | 90% | 90% | 
14 | 20-nm T1 pentamer-only capsid spheres (CA P1A+G60A+G61P), EGFP-labelled H87Q | 15000 | 13000 | 79% | 68% | 
15 | CLPs of CA I91E, filled with sinGFP4a (complex) |  |  |  |  | fold reduction of partitioning against wild type [2]: > 10 fold
16 | conical CLPs (capsid-like particles) of wild-type CA (CA-P1A), filled with sinGFP4a M96G | 28000 | 30000 |  | 90% | 
17 | CLPs of CA H87E, filled with sinGFP4a (complex) |  |  |  |  | fold reduction of partitioning against wild type [2]: 15 fold
18 | CLPs of CA R132K, filled with sinGFP4a (complex) |  |  |  |  | reduction in partitioning against wild type [2]: 50%
19 | CLPs of CA A92E, filled with sinGFP4a (complex) |  |  |  |  | fold reduction of partitioning against wild type [2]: > 10 fold; partitioning, percent of the wild-type level (% of the wild-type level) [2]: 5
20 | conical CLPs (capsid-like particles) of wild-type CA (CA-P1A), filled with sinGFP4a G116A |  |  |  |  | response [1, 8]: 27000; response [1, 9]: 32000
21 | conical CLPs (capsid-like particles) of wild-type CA (CA-P1A), filled with sinGFP4a H87G | 30000 | 30000 |  | 90% | 
22 | conical CLPs (capsid-like particles) of wild-type CA (CA-P1A), filled with sinGFP4a N57A; A92E | 14000 | 1100 | 52% | 4.2% | 
23 | conical CLPs (capsid-like particles) of wild-type CA (CA-P1A), filled with sinGFP4a N74D |  |  |  |  | percent of parent ([3]; signal at rim of FG particles): 110%; percent of parent [3, 10]: 110%; response [1, 8]: 30000; response [1, 9]: 33000

Row | Substance | response [4, 8] | response [4, 9] | percent of parent ([4]; signal at rim of FG particles) | percent of parent [4, 10] | further results
24 | conical CLPs (capsid-like particles) of wild-type CA (CA-P1A), filled with sinGFP4a A77V |  |  |  |  | percent of parent [3, 10]: 94%; response [1, 8]: 27000; response [1, 9]: 29000
25 | EGFP |  |  |  |  | partition coefficient (in:out) [2]: < 0.1
26 | conical CLPs (capsid-like particles) of wild-type CA (CA-P1A), filled with sinGFP4a A88G | 26000 | 30000 | 90% | 90% | 
27 | 20-nm T1 pentamer-only capsid spheres (CA P1A+G60A+G61P), EGFP-labelled Q9E | 15000 | 14000 | 79% | 74% | 
28 | conical CLPs (capsid-like particles) of wild-type CA (CA-P1A), filled with sinGFP4a V86E; A88E; I91E; A92E | 260 | 190 |  |  | percent of parent ([5]; signal at rim of FG particles): 1%; percent of parent [5, 10]: 0.7%
29 | 20-nm T1 pentamer-only capsid spheres (CA P1A+G60A+G61P), EGFP-labelled G89V |  |  |  |  | response [6, 8]: 31000; response [6, 9]: 34000; percent of parent ([6]; signal at rim of FG particles): 160%; percent of parent [6, 10]: 170%
30 | 20-nm T1 pentamer-only capsid spheres (CA P1A+G60A+G61P), EGFP-labelled P90A |  |  |  |  | response [6, 8]: 45000; response [6, 9]: 51000; percent of parent ([6]; signal at rim of FG particles): 240%; percent of parent [6, 10]: 260%
31 | conical CLPs (capsid-like particles) of wild-type CA (CA-P1A), filled with sinGFP4a E45A |  |  |  |  | percent of parent ([3]; signal at rim of FG particles): 110%; percent of parent [3, 10]: 110%; response [1, 8]: 29000; response [1, 9]: 34000
32 | conical CLPs (capsid-like particles) of wild-type CA (CA-P1A), filled with sinGFP4a N57A; A92E; G94D | 4300 | 660 | 16% | 2.5% | 
33 | CLPs of CA H87Q, filled with sinGFP4a (complex) |  |  |  |  | reduction in partitioning against wild type [2]: 50%
34 | conical CLPs (capsid-like particles) of wild-type CA (CA-P1A), filled with sinGFP4a N57A; G94D | 17000 | 1200 | 63% | 4.6% | 
35 | conical CLPs (capsid-like particles) of wild-type CA (CA-P1A), filled with sinGFP4a L136M |  |  |  |  | response [1, 8]: 28000; response [1, 9]: 30000
36 | conical CLPs (capsid-like particles) of wild-type CA (CA-P1A), filled with sinGFP4a N57A | 23000 | 1800 | 85% | 7% | percent of parent ([3]; signal at rim of FG particles): 80%; response [1, 8]: 21000; response [1, 9]: 1600
37 | mCherry |  |  |  |  | partition coefficient (in:out) [2]: < 0.1
38 | CLPs of CA M96E, filled with sinGFP4a (complex) |  |  |  |  | fold reduction of partitioning against wild type [2]: > 10 fold
39 | 20-nm T1 pentamer-only capsid spheres (CA P1A+G60A+G61P), EGFP-labelled H87Q; A92E; G94D | 2300 | 190 | 12% | 1% | 
40 | 20-nm T1 pentamer-only capsid spheres (CA P1A+G60A+G61P), EGFP-labelled V86E; A88E; I91E; A92E | 74 |  | 0.4% | 0.4% | 
41 | 20-nm T1 pentamer-only capsid spheres (CA P1A+G60A+G61P), EGFP-labelled A92E | 11000 | 5300 | 58% | 28% | 
42 | 20-nm T1 pentamer-only capsid spheres (CA P1A+G60A+G61P), EGFP-labelled G94D | 15000 | 9600 | 79% |  | 
43 | conical CLPs (capsid-like particles) of wild-type CA (CA-P1A), filled with sinGFP4a I91G | 30000 | 33000 |  |  | 
44 | conical CLPs (capsid-like particles) of wild-type CA (CA-P1A), filled with sinGFP4a R97K |  |  | 90% | 20% | response [7, 8]: 20000; response [7, 9]: 5000
45 | CLPs of CA A88E, filled with sinGFP4a (complex) |  |  |  |  | fold reduction of partitioning against wild type [2]: > 10 fold
46 | 20-nm T1 pentamer-only capsid spheres (CA P1A+G60A+G61P), EGFP-labelled Q9E; A92E | 5800 | 290 | 31% | 1.5% | 
